Results reported in patent US7098304B1, “Assay for the diagnosis of schizophrenia based on a new peptide” (Yeda Research and Development Co. Ltd., priority 1998, dated 2006).

B1: Enolase from Rabbit: commercially available rabbit protein enolase (protein)
chain: AMQKIFAREILDSRGNPTVEVDLHTAKGRFRAAVPSGASTGIYEALELRDGDKSRYLGKGVLKAVEHINKTLGPALLEKKLSVVDQEKVDKFMIELDGTENKSKFGANAILGVSLAVCKAGAAEKGVPLYRHIADLAGNHDLVLPVPAFNVINGGSHAGNKLAMQEFMILPVGASSFREAMRIGAEVYHHLKGVIKAKYGKDATNVGDEGGFAPNILENNEALELLKTAIQAAGYPDKVVIGMDVAASEFHRNGKYDLDFKSPDDPARHITGQKLGELYKSFIKNYPVVSIEDPFDQDDWATWTSFLSGVDIQIVGDDLTVTNPKRIAQAVEKKACNCLLLKVNQIGSVTESIQACKLAQSNGWGVMVSHRSGETEDTFIADLVVGLCTGQIKTGAPCRSERLAKYNQLMRIEEALGDKAVFAGRKFRNPKAK
B2: G-3-P-Dehydrogenase from bacillus subtilis: glyceraldehyde-3-phosphate dehydrogenase (G3PD) enzyme from bacillus subtilis (protein)
chain: AVKVGINGFGRIGRNVFRAALNNPEVEVVAVNDLTDANMLAHLLQYDSVHGKLDAEVSVDGNNLVVNGKTIEVSAERDPAKLSWGKQGVEIVVESTGFFTKRADAAKHLEAGAKKVIISAPANEEDITIVMGVNEDKYDAANHDVISNASCTTNCLAPFAKVLNDKFGIKRGMMTTVHSYTNDQQILDLPHKDYRRARAAAENIIPTSTGAAKAVSLVLPELKGKLNGGAMRVPTPNVSLVDLVAELNQEVTAEEVNAALKEAAEGDLKGILGYSEEPLVSGDYNGNKNSSTIDALSTMVMEGSMVKVISWYDNESGYSNRVVDLAAYIAKKGL

Legend:
[1] = test system: SDAs (schizophrenic derived antibodies); assay: Reactivity of proteins to SDAs (platelet autoantibodies from schizophrenic patients), blot with anti-human Fc-HRP; type: binding; conditions: number of SDA samples that reacted positively with the enzyme, of 8 patients
Method: (§1) 1. Platelets and Anti-Platelet Autoantibodies Venous blood (20 ml) was drawn with heparin as anticoagulant from patients and control subjects. Platelet rich plasma (PRP) was obtained by centrifugation (100 g for 20 mins) at room temperature. Plasma free platelets were obtained by washing them three times with phosphate buffered saline (PBS) supplemented with 10 ml mM EDTA as anticoagulant (4000 g; 15 mins; 4° C.). For the isolation of anti-platelet antibodies, the platelets were incubated with 0.1 M glycine/10 mM EDTA, pH 2.8, for 10 min. at room temperature and then centrifuged (4000 g; 15 min; 4° C.). The supernatant containing the anti-platelet antibodies, was neutralized with saturated Na2PO4 solution and stored at −20 until use. 2. Preparative Isoelectric Focusing
(§2) The fractions were analyzed for immuno-reactivity by polyacrylamide (10%) gel electrophoresis, blotting the proteins onto PVDF membranes and probing the membrane with 1 ml auto-antibodies in 50 ml incubation buffer. Anti-human Fc conjugated to horseradish peroxidase (goat) from SIGMA (1:500 dilution) and Fast-DAB™ (SIGMA) or 4-Chloro-naphthol (SIGMA) were used as color reagent in order to detect bound human anti-platelet antibodies.
(§3) Every fifth fraction (0.1 ml) was dot blotted onto PVDF membranes using the DotBlot device (96 wells) from BioRad. Immuno-reactive fractions were then detected as described above (1.3) […]

[2] = test system: NSDAs (non-schizophrenic derived antibodies); assay: Reactivity of proteins to NSDAs (platelet autoantibodies from control non-schizophrenic individuals), blot with anti-human Fc-HRP; type: binding; conditions: number of NSDA samples that reacted positively with the enzyme, of 8 controls
Method: as §1, §2, §3

| Molecule | Patients (n = 8) Positive [1] | Controls (n = 8) Positive [2] |
| --- | --- | --- |
| B1 | 7/8 | 1/8 |
| B2 | 1/8 | 2/8 |
